Data: publication PMC9119168 (Antiviral Research, 2022)
Where no end group is shown, it is not given here. Side-chain parts run from the residue outwards. The star is where a group is joined. Biotin = O=C1N[C@H]2[C@H](CS[C@H]2CCCCC(=O)*)N1; Aoa = not defined here

Experiments:
[1] = molecular target: T1, SARS-CoV-2 Mac1 (conserved macrodomain of non-structural protein 3), His-tagged (SARS-CoV-2, UniProt P0DTD1); assay: AlphaScreen or HTRF
[2] = molecular target: T1, SARS-CoV-2 Mac1 (conserved macrodomain …); assay: fluorescence polarisation

Row | Binder | binding result [1] | binding result [2]
1 | ARTK(Biotin)QTARK([Aoa-ADP‑ribose])S (reading uncertain) [10 amino acid biotinylated and ADP-ribosylated peptide [ARTK(Bio)QTARK (Aoa-RADP)S]] | binds | –
2 | ARTKQTARKS [fluorescein labeled ADP-ribosylated peptide [5 Flu-ARTKQTARK (Aoa-RADP)S]] | – | binds
